Test results from paper PMC8228192, “Parallel and Sequential Pathways of Molecular Recognition of a Tandem-Repeat Protein and Its Intrinsically Disordered Binding Partner” (Biomolecules, 2021).
Changes are numbered by the printed parent chain. Numbers in names are those of the source. No end group written: not given here.

T1: ARM repeat domain of human β-catenin (residues 134–671) (human, UniProt P35222 134-671)
T1 construct: β-catenin, human, ARM repeat domain, residues 134–671; Plasmid was a gift from W.I. Weis; source: E. coli C41, purified (glutathione-Sepharose 4B, thrombin cleavage on resin, Mono-Q)
T1 sequence (looked up): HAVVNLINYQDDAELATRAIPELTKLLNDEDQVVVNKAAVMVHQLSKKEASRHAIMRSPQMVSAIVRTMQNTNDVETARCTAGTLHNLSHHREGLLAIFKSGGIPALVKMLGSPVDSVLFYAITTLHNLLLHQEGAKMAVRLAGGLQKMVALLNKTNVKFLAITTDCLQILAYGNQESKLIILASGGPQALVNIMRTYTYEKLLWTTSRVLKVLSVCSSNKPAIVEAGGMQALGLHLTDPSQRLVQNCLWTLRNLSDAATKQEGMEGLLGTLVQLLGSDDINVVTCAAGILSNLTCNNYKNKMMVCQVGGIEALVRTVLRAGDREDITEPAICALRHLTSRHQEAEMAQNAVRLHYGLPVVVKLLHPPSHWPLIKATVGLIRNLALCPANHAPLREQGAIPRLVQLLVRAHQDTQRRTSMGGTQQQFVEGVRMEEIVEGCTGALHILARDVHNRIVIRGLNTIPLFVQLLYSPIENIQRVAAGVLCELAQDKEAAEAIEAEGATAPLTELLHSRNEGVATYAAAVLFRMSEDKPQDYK

B1: TCF7L2 (1–54) S31C N15A, fluorescein-labelled (domain or fragment, UniProt Q9NQB0 1-54, looked up)
chain: MPQLNGGGGDDLGAADELISFKDEGEQEEKC(fluorescein maleimide)SENSSAERDLADVKSSLVNESET
notes: One extra serine is left behind after thrombin cleavage of the tag; source: E. coli C41, purified (Ni-NTA, thrombin cleavage, Superdex 75), labelled with fluorescein maleimide
B2: TCF7L2 (1–54) S31C L41A, fluorescein-labelled (domain or fragment, UniProt Q9NQB0 1-54, looked up)
chain: MPQLNGGGGDDLGANDELISFKDEGEQEEKC(fluorescein maleimide)SENSSAERDAADVKSSLVNESET
notes: as for B1
B3: TCF7L2 (1–54) S31C D23A E24A E26A E28A E29A (5X), fluorescein-labelled (domain or fragment, UniProt Q9NQB0 1-54, looked up)
chain: MPQLNGGGGDDLGANDELISFKAAGAQAAKC(fluorescein maleimide)SENSSAERDLADVKSSLVNESET
notes: One extra serine is left behind after thrombin cleavage of the tag; also called quintuple mutant; 5X variant; source: E. coli C41, purified (Ni-NTA, thrombin cleavage, Superdex 75), labelled with fluorescein maleimide
B4: TCF7L2 (1–54) S31C E29A, fluorescein-labelled (domain or fragment, UniProt Q9NQB0 1-54, looked up)
chain: MPQLNGGGGDDLGANDELISFKDEGEQEAKC(fluorescein maleimide)SENSSAERDLADVKSSLVNESET
notes: as for B1
B5: TCF7L2 (1–54) S31C K45A, fluorescein-labelled (domain or fragment, UniProt Q9NQB0 1-54, looked up)
chain: MPQLNGGGGDDLGANDELISFKDEGEQEEKC(fluorescein maleimide)SENSSAERDLADVASSLVNESET
notes: as for B1
B6: TCF7L2 (1–54) S31C F21A, fluorescein-labelled (domain or fragment, UniProt Q9NQB0 1-54, looked up)
chain: MPQLNGGGGDDLGANDELISAKDEGEQEEKC(fluorescein maleimide)SENSSAERDLADVKSSLVNESET
notes: as for B1
B7: TCF7L2 (1–54) S31C I19A, fluorescein-labelled (domain or fragment, UniProt Q9NQB0 1-54, looked up)
chain: MPQLNGGGGDDLGANDELASFKDEGEQEEKC(fluorescein maleimide)SENSSAERDLADVKSSLVNESET
notes: One extra serine is left behind after thrombin cleavage of the tag; also called TCF7L2 I19A; source: E. coli C41, purified (Ni-NTA, thrombin cleavage, Superdex 75), labelled with fluorescein maleimide
B8: TCF7L2 (1–54) S31C E28A, fluorescein-labelled (domain or fragment, UniProt Q9NQB0 1-54, looked up)
chain: MPQLNGGGGDDLGANDELISFKDEGEQAEKC(fluorescein maleimide)SENSSAERDLADVKSSLVNESET
notes: as for B1
B9: TCF7L2 (1–54) S31C E38A, fluorescein-labelled (domain or fragment, UniProt Q9NQB0 1-54, looked up)
chain: MPQLNGGGGDDLGANDELISFKDEGEQEEKC(fluorescein maleimide)SENSSAARDLADVKSSLVNESET
notes: as for B1
B10: TCF7L2 (1–54) S31C E24A E29A, fluorescein-labelled (domain or fragment, UniProt Q9NQB0 1-54, looked up)
chain: MPQLNGGGGDDLGANDELISFKDAGEQEAKC(fluorescein maleimide)SENSSAERDLADVKSSLVNESET
notes: One extra serine is left behind after thrombin cleavage of the tag; also called double mutant; source: E. coli C41, purified (Ni-NTA, thrombin cleavage, Superdex 75), labelled with fluorescein maleimide
B11: TCF7L2 (1–54) S31C E17A, fluorescein-labelled (domain or fragment, UniProt Q9NQB0 1-54, looked up)
chain: MPQLNGGGGDDLGANDALISFKDEGEQEEKC(fluorescein maleimide)SENSSAERDLADVKSSLVNESET
notes: as for B1
B12: TCF7L2 (1–54) S31C, labelled with fluorescein maleimide at Cys31 (domain or fragment, UniProt Q9NQB0 1-54, looked up)
chain: MPQLNGGGGDDLGANDELISFKDEGEQEEKC(fluorescein maleimide)SENSSAERDLADVKSSLVNESET
notes: One extra serine is left behind after thrombin cleavage of the tag; also called fluorescein-labelled WT; fluorescent-labelled WT TCF7L2 (1–54); source: E. coli C41, purified (Ni-NTA, thrombin cleavage, Superdex 75), labelled with fluorescein maleimide
B13: TCF7L2 (1–54) S31C E24A, fluorescein-labelled (domain or fragment, UniProt Q9NQB0 1-54, looked up)
chain: MPQLNGGGGDDLGANDELISFKDAGEQEEKC(fluorescein maleimide)SENSSAERDLADVKSSLVNESET
notes: as for B1
B14: TCF7L2 (1–54) S31C D23A, fluorescein-labelled (domain or fragment, UniProt Q9NQB0 1-54, looked up)
chain: MPQLNGGGGDDLGANDELISFKAEGEQEEKC(fluorescein maleimide)SENSSAERDLADVKSSLVNESET
notes: as for B1
B15: TCF7L2 (1–54) S31C E26A, fluorescein-labelled (domain or fragment, UniProt Q9NQB0 1-54, looked up)
chain: MPQLNGGGGDDLGANDELISFKDEGAQEEKC(fluorescein maleimide)SENSSAERDLADVKSSLVNESET
notes: as for B1
B16: TCF7L2 (1–54) S31C L48A, fluorescein-labelled (domain or fragment, UniProt Q9NQB0 1-54, looked up)
chain: MPQLNGGGGDDLGANDELISFKDEGEQEEKC(fluorescein maleimide)SENSSAERDLADVKSSAVNESET
notes: as for B1
B17: TCF7L2 (1–54) S31C L12A, fluorescein-labelled (domain or fragment, UniProt Q9NQB0 1-54, looked up)
chain: MPQLNGGGGDDAGANDELISFKDEGEQEEKC(fluorescein maleimide)SENSSAERDLADVKSSLVNESET
notes: as for B1
B18: TCF7L2 (1–54) S31C V44A, fluorescein-labelled (domain or fragment, UniProt Q9NQB0 1-54, looked up)
chain: MPQLNGGGGDDLGANDELISFKDEGEQEEKC(fluorescein maleimide)SENSSAERDLADAKSSLVNESET
notes: as for B1
B19: TCF7L2 (1–54), wild type, unlabelled (domain or fragment, UniProt Q9NQB0 1-54, looked up)
chain: MPQLNGGGGDDLGANDELISFKDEGEQEEKSSENSSAERDLADVKSSLVNESET
notes: also called wild-type TCF7L2 (1–54); source: E. coli C41, purified (Ni-NTA, thrombin cleavage, Superdex 75)
B20: TCF7L2 (1–54) S31C, unlabelled (domain or fragment, UniProt Q9NQB0 1-54, looked up)
chain: B19 chain with S31C
notes: One extra serine is left behind after thrombin cleavage of the tag; also called WT; pseudo-wild type; source: E. coli C41, purified (Ni-NTA, thrombin cleavage, Superdex 75)

target: T1, ARM repeat domain of human β-catenin …; test: stopped-flow fluorescence kinetics (association); 10 nM fluorescein-labelled TCF7L2 mixed 1:1 with 100–1000 nM unlabelled β-catenin, pseudo-first-order; PBS, 1 mM DTT, 15 °C; kon from the linear fit of kobs against β-catenin concentration; conditions: both partners purified

| kon [M⁻¹ s⁻¹] | Binder |
| --- | --- |
| 6.25e+07 ± 0.23 | B1 |
| 5.95e+07 ± 0.24 | B2 |
| 4.26e+07 ± 0.17 | B3 |
| 5.73e+07 ± 0.43 | B4 |
| 1.031e+08 ± 0.19 | B5 |
| 4.82e+07 ± 0.17 | B6 |
| 7.04e+07 ± 0.52 | B7 |
| 5.84e+07 ± 0.35 | B8 |
| 6.2e+07 ± 0.19 | B9 |
| 6.13e+07 ± 0.34 | B10 |
| 6.3e+07 ± 0.42 | B11 |
| 7.33e+07 ± 0.14 | B12 |
| 6.05e+07 ± 0.12 | B13 |
| 5.31e+07 ± 0.25 | B14 |
| 5.59e+07 ± 0.22 | B15 |
| 5.67e+07 ± 0.6 | B16 |
| 7.19e+07 ± 0.13 | B17 |
| 5.05e+07 ± 0.46 | B18 |

target: T1, ARM repeat domain of human β-catenin …; test: fluorescence spectroscopy kinetics (dissociation, fluorimeter); pre-formed 1:1 complex of labelled TCF7L2 and β-catenin mixed 1:1 with 50-times molar excess of unlabelled TCF7L2; PBS, 1 mM DTT, 15 °C; fitted to sums of exponential phases; conditions: both partners purified

| koff,major (major slow phase of biphasic dissociation) [s⁻¹] | koff,minor (minor fast phase of biphasic dissociation) [s⁻¹] | Binder |
| --- | --- | --- |
| 0.000442 ± 0.15 | 0.00365 ± 0.83 | B1 |
| 0.000295 ± 0.23 | 0.00234 ± 0.33 | B3 |
| 0.000897 ± 0.44 | 0.00245 ± 0.21 | B4 |
| 0.00219 ± 0.4 | 0.015 ± 1.3 | B5 |
| 0.000496 ± 0.35 | 0.00116 ± 0.28 | B8 |
| 0.000539 ± 0.5 | 0.00261 ± 0.28 | B9 |
| 0.000425 ± 0.29 | 0.00173 ± 0.14 | B10 |
| 0.00891 ± 2.9 | 0.0283 ± 1.9 | B11 |
| 0.000573 ± 0.4 | 0.00152 ± 0.28 | B12 |
| 0.000503 ± 0.4 | 0.00153 ± 0.21 | B13 |
| 0.0003 ± 0.16 | 0.00239 ± 0.7 | B14 |
| 0.000474 ± 0.3 | 0.00166 ± 0.16 | B15 |
| 0.00132 ± 0.1 | 0.00424 ± 0.13 | B16 |
| 0.000977 ± 0.75 | 0.00264 ± 0.2 | B17 |

target: T1, ARM repeat domain of human β-catenin …; test: ITC; β-catenin 2–4 µM in the cell, TCF7L2 18–40 µM in the syringe; PBS, 1 mM DTT, 30 °C; one-site binding fit; conditions: both partners purified

| binding result | Binder |
| --- | --- |
| binds | B19 |
| binds | B20 |

target: T1, ARM repeat domain of human β-catenin …; test: stopped-flow fluorescence kinetics (dissociation); pre-formed 1:1 complex (200 nM) of labelled TCF7L2 and β-catenin mixed 1:1 with 50-times molar excess of unlabelled TCF7L2 (10 µM); PBS, 1 mM DTT, 15 °C; fitted to sums of exponential phases; conditions: both partners purified

| koff,major (major slow phase of biphasic dissociation) [s⁻¹] | koff,minor (minor fast phase of biphasic dissociation) [s⁻¹] | Binder |
| --- | --- | --- |
| 0.0993 ± 17 | 0.616 ± 111 | B2 |
| 0.0258 ± 2 | 0.423 ± 15 | B6 |
| 0.011 ± 0.5 | 0.207 ± 10 | B7 |
| 0.0742 ± 8 | 0.498 ± 70 | B18 |
